Assay results from patent publication US20240174992A1, “SPLIT MODIFIED DEHALOGENASE VARIANTS” (Promega Corporation, priority 2022, published 2024).
Numbering of substitutions follows the chain as printed. In names and notes the source's numbering stands.

B1: HaloTag[22-297](M2F): large HaloTag fragment, positions 22-297 with M to F substitution at second position (protein)
chain: MFHYVDVGPRDGTPVLFLHGNPTSSYVWRNIIPHVAPTHRCIAPDLIGMGKSDKPDLGYFFDDHVRFMDAFIEALGLEEVVLVIHDWGSALGFHWAKRNPERVKGIAFMEFIRPIPTWDEWPEFARETFQAFRTTDVGRKLIIDQNVFIEGTLPMGVVRPLTEVEMDHYREPFLNPVDREPLWRFPNELPIAGEPANIVALVEEYMDWLHQSPVPKLLFWGTPGVLIPPAEAARLAKSLPNCKAVDIGPGLNLLQEDNPDLIGSEIARWLSTLEISG
B2: HaloTag[22-297](Q145H+P154R): variant of the LgHT, positions 22-297 with HaloTag9 mutations (protein)
chain: B1 chain with F2M, Q145H, P154R

What was measured:
[1] = Complementation of N-terminal split HaloTag constructs in E. coli lysates, Janelia Fluor ligand fluorescence; type: biochemical; details: 500 nM Rapamycin, 50 nM JF646
Description: FIG. 21A-B. Comparison of complementation activity of N-terminal split HaloTag constructs. Each HaloTag fragment was expressed separately in E. coli and then combined after lysis. The smaller N-terminal HaloTag fragments as FKBP fusions were tested against the larger fragments of FIG. 21A HT(23-297)-FRB or FIG. 21B HT(22-297)-FRB. To each reaction, 500 nM Rapamycin was added and incubated at room temperature for 2.5 hours prior to addition of 50 nM JF646 ligand and measurement of fluorescence at the indicated timepoint.
FIG. 22. Comparison of truncations of N-terminal split HaloTag constructs. Each HaloTag fragment was expressed separately in E. coli and then combined after lysis. […] To each reaction, 500 nM Rapamycin was added and incubated at room temperature for 2 hours prior to addition of 50 nM JF646 ligand and measurement of fluorescence at the indicated timepoint.
FIG. 25A-B. Mutations in N-terminal split HaloTag fragments improve fluorescence intensity and fold response. […] To each reaction, 500 nM Rapamycin was added and incubated at room temperature for 2 hours prior to addition of 50 nM JF646 ligand and measurement of fluorescence at the indicated timepoint. FIG. 25A Fluorescence intensity is shown for +Rapamycin condition to show the overall system brightness relative to FIG. 25B Fold response following Rapamycin addition. […]

[2] = target: T1, BRD4:Histone H3.3 interaction (Homo sapiens, UniProt O60885); assay: Live cell imaging of the BRD4:Histone H3 interaction with split HaloTag in HeLa cells; type: cell-based; details: second experiment, lower laser intensity
T1 construct: HaloTag[3-19]; expressed in transfected cells; host or cells: HeLa cells
Description: The Imaging data were collected in the far-red channel (Ex. 637 nm) and the green channel (Ex. 488 nm).
The imaging data were collected in the far-red channel (Ex. 637 nm) and the green channel (Ex. 488 nm). * DIC: Differential Interference Contrast.
The imaging data were collected in the far-red channel (Ex. 637 nm) and the green channel (Ex. 488 nm).
Each dot represents the intensity of an imaged cell. CellProfiler software is used for analysis. The horizontal line in each set indicates the median of the data.
Each dot represents the intensity of an imaged cell. CellProfiler software is used for this analysis. The horizontal line is indicative of the median of the data.
A second set of imaging experiments was performed to confirm reproducibility and show improvement of the system's signal-to-background ratio by changing a few confocal microscope settings, such as lower gain and laser intensity (FIG. 132).
The purpose of the second experiment (FIG. 131-134) with lower signal intensity was to see if most of the background signal could be eliminated with the cost of the overall reduction in the specific signal in the far-red channel.

[3] = target: T2, BRD4:Histone H3 interaction (Homo sapiens, UniProt O60885); assay: Single live cell time-lapse imaging after JQ1 addition (SmHaloTag dissociation); type: cell-based; details: 20 micromolar JQ1, up to about 5 hours, ligand-bound
T2 construct: HaloTag[3-19]; expressed in transfected cells; host or cells: HeLa cells
Description: FIG. 139. Quantitation of single live cell time-lapse imaging of inhibition of the BRD4:Histone H3 interaction using split HaloTag fluorescence. […] The intensity of a single cell in both the green and the far-red channel plus its occupied area was tracked over this period.
Measurement of the fluorescence intensity of Split HaloTag after the dissociation of the Small HaloTag peptide, HaloTag[3-19], was tested. After the separation of the SmHaloTag, the Large HaloTag, HaloTag[22-297](M2F), is still covalently bound to the ligand but does the Small HaloTag dissociation affect the ligand fluorogenicity/activity? Time-lapse live cell imaging was performed to address this question. To ensure the tracked cell was viable during the experiment, the area occupied by that specific cell was measured at all time points.

[4] = test system: synthetic HaloTag[3-19] peptide; assay: Complementation of large HaloTag fragment in E. coli lysates with synthetic HaloTag[3-19] peptide, JF646; type: binding; details: for Kd: synthetic HaloTag[3-19] peptide titration up to 1 mM, estimated from saturation of fluorescence signal, read-out: affinity between the split HaloTag fragments
Description: FIG. 30. Complementation of HaloTag[22-297](M2F) fragment in E. coli lysates using a synthetic HaloTag[3-19] peptide. […] Reactions were incubated for 2 hours at room temperature and then labeled with 50 nM JF646 HaloTag ligand prior to fluorescence detection.
FIG. 31. Complementation of HaloTag[22-297](Q145H+P154R) fragment in E. coli lysates using a synthetic HaloTag[3-19] peptide. […] Reactions were incubated for 2 hours at room temperature and then labeled with 50 nM JF646 HaloTag ligand prior to fluorescence detection.

[5] = test system: HeLa cells; assay: Live cell confocal imaging of split HaloTag in the FRB/FKBP model system in HeLa cells; type: cell-based; details: for signal-to-background ratio, complemented split HaloTag over labeling the large HaloTag alone: presence of Rapamycin; for S:B ratio in +rapamycin/−rapamycin conditions: with HaloTag[3-19] fragment, JF646 imaging
Description: (§1) FIG. 105. Live cell imaging of split HaloTag activity in mammalian cells using a model protein interaction system showing dependence on interaction facilitation for labeling. HeLa cells transiently transfected with plasmids expressing both EGFP-FKBP-HaloTag[3-19] and HaloTag[22-297](Q145H+P154R)-FRB were imaged in +/−Rapamycin conditions; in +Rapamycin condition cells were incubated with 1 micromolar Rapamycin overnight at 37° C. Prior to imaging by confocal microscopy, cells were labeled with 100 nM JF646 HaloTag ligand for 30 minutes at 37° C. The Imaging data were collected in the Far-red channel (Ex. 637 nm, left) and the green channel (Ex. 488 nm, right).
(§2) FIG. 106. Quantitation of live cell imaging of split HaloTag activity in mammalian cells using a model protein interaction system. HeLa cells transiently transfected with plasmids expressing both EGFP-FKBP-HaloTag[3-19] and HaloTag[22-297](Q145H+P154R)-FRB were imaged in +/−Rapamycin conditions; in +Rapamycin condition cells were incubated with 1 micromolar Rapamycin overnight at 37° C. Prior to imaging by confocal microscopy, cells were labeled with 100 nM JF646 HaloTag ligand for 30 minutes at 37° C. Comparison of the fluorescence intensity of non-complemented vs. complemented split HaloTag in +/−RAP conditions in the far-red channel, respectively.
as §1, with “107.” for “105.”, “HaloTag[22-297](M2F)-FRB” for “HaloTag[22-297](Q145H+P154R)-FRB”
as §2, with “FIG. 108. Quantitation of” for “FIG. 106. Quantitation of”, “EGFP-FKBP-HaloTag[3-19] and HaloTag[22-297](M2F)-FRB were imaged” for “EGFP-FKBP-HaloTag[3-19] and HaloTag[22-297](Q145H+P154R)-FRB were imaged”, “minutes at Comparison of” for “minutes at 37° C. Comparison of”
FIG. 109. […] Each dot represents the intensity of an imaged cell as quantitated using CellProfiler software.
FIG. 115. Live cell imaging of split HaloTag activity in mammalian cells. HeLa cells transiently transfected with plasmids expressing both EGFP-FKBP-HaloTag[3-19] and HaloTag[22-297](Q145H+P154R)-FRB were imaged in +Rapamycin condition, 1 micromolar Rapamycin overnight incubation at 37° C. Prior to imaging by confocal microscopy, cells were labeled with 100 nM JF646 HaloTag ligand for 30 minutes at 37° C. The Imaging data were collected in the Far-red channel (Ex. 637 nm, bottom) and the green channel (Ex. 488 nm, top).
FIG. 116. Live cell imaging of split HaloTag activity in mammalian cells. HeLa cells transiently transfected with plasmids expressing both EGFP-FKBP-HaloTag[3-19] and HaloTag[22-297](Q145H+P154R)-FRB were imaged in and −Rapamycin condition. […]

[6] = Kinetic labeling assay with TMR ligand, fluorescence polarization, synthetic peptide complementation; type: biochemical, E. coli; details: 10 nM TMR ligand
Description: FIG. 32. Complementation of HaloTag[22-297](M2F) fragments using a synthetic HaloTag[3-19] peptide in a kinetic labeling assay.
A different HaloTag ligand (TMR) and fluorescence polarization assay format can be used to measure complementation with synthetic peptides (FIG. 32). […] At high peptide concentrations, the complementation with the peptide results in greater labeling rates.
The LgHT variant, HaloTag[22-297](Q145H+P154R), was also tested with the HaloTag ligand (TMR) in the fluorescence polarization assay format to measure complementation with synthetic peptides (FIG. 33). The relative kinetic rate of labeling is higher for this mutant without peptide due to its greater intrinsic stability and expression in E. coli lysates.

[7] = test system: HeLa cells; assay: Lytic TMR assay of large HaloTag fragment expression in HeLa cells; type: cell-based; details: complemented and non-complemented forms
Description: FIG. 124. Comparing the expression of HaloTag[22-297](Q145H+P154R) and HaloTag[22-297](M2F) when complemented with the small HaloTag fragment in mammalian cells. 50 ul of HeLa cells lysate that was transiently transfected with plasmids expressing EGFP-FKBP-HaloTag[3-19], HaloTag[22-297](Q145H+P154R)-FRB or HaloTag[22-297](M2F)-FRB plasmids and were incubated with 500 nM Rapamycin at room temperature for 2 hours to induce HaloTag fragments complementation. TMR HaloTag ligand at 2 micromolar was added to all wells and incubated at room temperature in the dark overnight prior to resolution by SDS-PAGE and fluorescence detection.
Experiments were conducted during development of embodiments herein to compare the expression of HaloTag[22-297](Q145H+P154R) vs. HaloTag[22-297](M2F) as complemented with the small HaloTag fragment HaloTag[3-19] and non-complemented form in mammalian cells (FIG. 124).

[8] = compared with HaloTag[22-297](M2F)

Molecule	effect of mutation in the HT(22-297) large fragment on system performance [1]	S:B ratio, background from labeling the large HaloTag [2]	change in cell intensity upon SmHaloTag dissociation [3]	Kd [4]	signal-to-background ratio, complemented split HaloTag over labeling the large HaloTag alone [5]	S:B ratio in +rapamycin/−rapamycin conditions [5]	labeling rate in the presence of peptide [6]	expression in mammalian cells [7]	complemented signal [4, 8]	fold response [4, 8]	response to Rapamycin ([5]; HaloTag[3-19] fusion plus variant LgHT fusion, 1 micromolar Rapamycin, 100 nM JF646)	apparent affinity for the peptide (saturates fluorescence intensity at higher peptide concentrations)	lowest peptide concentration with measurable fold response (synthetic HaloTag[3-19] peptide)
B1	improve the fold response	12	reduces almost by half	> 100000 nM	16	about 6.7							
B2	significantly enhanced the labeling speed			~1000 nM	5.7	about 4	faster labeling rates relative to the HaloTag[22-297](M2F) mutant	expressed better than HaloTag[22-297](M2F)	higher complemented signal	lower fold response	25 fold	higher apparent affinity for the peptide	mid-nanomolar range
